16 molecules from US20230257470A1 (published 2023) can be followed below.

T1: human FcγRIIb (human, UniProt P31994 43-217, limits assumed)
T1 construct: Soluble analyte in SPR; also called hFcgRIIb; FcgRIIb
T1 sequence: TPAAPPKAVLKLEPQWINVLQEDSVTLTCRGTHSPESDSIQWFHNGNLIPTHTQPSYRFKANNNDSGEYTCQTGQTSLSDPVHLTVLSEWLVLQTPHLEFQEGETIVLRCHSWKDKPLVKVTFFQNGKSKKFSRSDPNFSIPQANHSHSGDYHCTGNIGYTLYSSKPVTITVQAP

T2: human FcγRIIa(H) (allotype H131) (human, UniProt P12318 36-217)
T2 construct: Soluble analyte in SPR; also called hFcgRIIa(H); FcgRIIaH
T2 sequence: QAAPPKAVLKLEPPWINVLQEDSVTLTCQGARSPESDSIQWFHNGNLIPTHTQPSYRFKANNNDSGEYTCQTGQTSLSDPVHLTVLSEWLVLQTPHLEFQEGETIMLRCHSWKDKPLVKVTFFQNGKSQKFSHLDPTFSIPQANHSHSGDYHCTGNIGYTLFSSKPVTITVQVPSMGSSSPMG

T3: human FcγRIIa(R) (allotype R131) (human, UniProt P12318 36-217)
T3 construct: Soluble analyte in SPR; also called hFcgRIIa(R); FcgRIIaR
T3 chain: T2 sequence with H133R

T4: human FcγRIIb (human, UniProt P31994 43-217, limits assumed)
T4 construct: Whole entry (AAI46679.1); also called FcγIIB; FcgRIIb
T4 sequence: T1 sequence

T5: human FcγRIIa type R (human, UniProt P12318 36-217)
T5 construct: also called FcγRIIaR; FcγRIIa(R)
T5 chain: T2 sequence with H133R

B1: antibody containing VH3-IgG2-F890 for the heavy chain and L(WT)-CK for the light chain (antibody)
heavy: QVQLQESGPGLVKPSETLSLTCAVSGHSISHDHAWSWVRQPPGEGLEWIGFISYSGITNYNPSLQGRVTISRDNSKNTLYLQMNSLRAEDTAVYYCARSLARTTAMDYWGEGTLVTVSSASTKGPSVFPLAPCSRSTSESTAALGCLVKDYFPEPVTVSWNSGALTSGVHTFPAVLQSSGLYSLSSVVTVPSSNFGTQTYTCNVDHKPSNTKVDKTVERKCCVECPPCPAPPVAGPSVFLFPPKPKDTLYISRTPEVTCVVVDVSHEDPEVQFNWYVDGVEVHNAKTKPREEQFNSTFRVVSVLTVVHQDWLNGKEYKCKVSNKGLPAPIEKTISKTKGQPREPQVYTLPPSREEMTKNQVSLTCLVKGFYPSDIAVEWESNGQPENNYKTTPPMLDSDGSFFLYSKLTVDKSRWQQGNVFSCSVMHEALHYHVTQKSLSLSP
light: not shown
notes: VH3-IgG2 with M252Y/N434Y/Y436V (EU numbering)
B2: antibody containing VH3-IgG2-F939 for the heavy chain and L(WT)-CK for the light chain (antibody)
heavy: B1 heavy with A234R, S237K
light: not shown
notes: VH3-IgG2 with A235R/S239K/M252Y/N434Y/Y436V (EU numbering)
B3: antibody containing VH3-IgG2 for the heavy chain and L(WT)-CK for the light chain (antibody)
heavy: B1 heavy with Y250M, Y432N, V434Y
light: not shown
B4: antibody containing VH3-IgG4-F890 for the heavy chain and L(WT)-CK for the light chain (antibody)
heavy: QVQLQESGPGLVKPSETLSLTCAVSGHSISHDHAWSWVRQPPGEGLEWIGFISYSGITNYNPSLQGRVTISRDNSKNTLYLQMNSLRAEDTAVYYCARSLARTTAMDYWGEGTLVTVSSASTKGPSVFPLAPCSRSTSESTAALGCLVKDYFPEPVTVSWNSGALTSGVHTFPAVLQSSGLYSLSSVVTVPSSSLGTKTYTCNVDHKPSNTKVDKRVESKYGPPCPPCPAPEFLGGPSVFLFPPKPKDTLYISRTPEVTCVVVDVSQEDPEVQFNWYVDGVEVHNAKTKPREEQFNSTYRVVSVLTVLHQDWLNGKEYKCKVSNKGLPSSIEKTISKAKGQPREPQVYTLPPSQEEMTKNQVSLTCLVKGFYPSDIAVEWESNGQPENNYKTTPPVLDSDGSFFLYSRLTVDKSRWQEGNVFSCSVMHEALHYHVTQKSLSLSL
light: not shown
notes: VH3-IgG4 with M252Y/N434Y/Y436V (EU numbering)
B5: antibody containing VH3-IgG4-F939 for the heavy chain and L(WT)-CK for the light chain (antibody)
heavy: B4 heavy with L234R, S238K
light: not shown
notes: VH3-IgG4 with L235R/S239K/M252Y/N434Y/Y436V (EU numbering)
B6: GpH7-B3 N325F/GpL16-k0 (antibody, human IgG1)
heavy: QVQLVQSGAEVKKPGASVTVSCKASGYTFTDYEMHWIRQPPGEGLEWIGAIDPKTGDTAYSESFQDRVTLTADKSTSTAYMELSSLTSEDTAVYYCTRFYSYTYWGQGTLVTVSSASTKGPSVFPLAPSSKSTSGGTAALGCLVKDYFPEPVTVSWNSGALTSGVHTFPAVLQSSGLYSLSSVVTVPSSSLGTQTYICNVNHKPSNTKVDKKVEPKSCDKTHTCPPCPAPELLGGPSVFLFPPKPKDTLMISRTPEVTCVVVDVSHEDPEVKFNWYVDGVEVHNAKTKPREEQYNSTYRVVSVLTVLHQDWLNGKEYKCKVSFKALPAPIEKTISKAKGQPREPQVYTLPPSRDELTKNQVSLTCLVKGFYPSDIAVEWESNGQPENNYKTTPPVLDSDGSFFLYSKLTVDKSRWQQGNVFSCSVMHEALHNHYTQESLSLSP
light: DIVMTQSPLSLPVTPGEPASISCQASESLVHSNRNTYLHWYLQKPGQSPQLLIYKVSNRFSGVPDRFSGSGSGTDFTLKISRVEAEDVGVYYCSQNTHVPPTFGQGTKVEIE
notes: Anti-glypican-3 human IgG1 with B3 constant region (G1d with K439E); also called B3 variant; copies: 2 + 2
B7: GpH7-B3 Y300R/GpL16-k0 (antibody, human IgG1)
heavy: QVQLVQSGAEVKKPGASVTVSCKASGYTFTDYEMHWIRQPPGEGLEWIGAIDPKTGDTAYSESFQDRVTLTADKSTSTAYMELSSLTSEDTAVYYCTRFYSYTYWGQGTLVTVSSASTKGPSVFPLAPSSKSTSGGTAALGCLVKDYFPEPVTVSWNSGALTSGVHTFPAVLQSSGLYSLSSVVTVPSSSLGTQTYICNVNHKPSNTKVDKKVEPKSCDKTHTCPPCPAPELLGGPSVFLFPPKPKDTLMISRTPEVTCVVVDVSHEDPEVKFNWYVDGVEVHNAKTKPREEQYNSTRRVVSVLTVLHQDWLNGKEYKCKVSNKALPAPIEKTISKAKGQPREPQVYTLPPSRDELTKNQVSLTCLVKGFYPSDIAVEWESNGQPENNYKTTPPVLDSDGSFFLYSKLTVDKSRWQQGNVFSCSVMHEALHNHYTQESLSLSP
light: B6 light
notes: as for B6
B8: IL6R-BP180/IL6R-L (antibody, human IgG1, name in EU numbering)
heavy: QVQLQESGPGLVKPSETLSLTCAVSGHSISHDHAWSWVRQPPGEGLEWIGFISYSGITNYNPSLQGRVTISRDNSKNTLYLQMNSLRAEDTAVYYCARSLARTTAMDYWGEGTLVTVSSASTKGPSVFPLAPSSKSTSGGTAALGCLVKDYFPEPVTVSWNSGALTSGVHTFPAVLQSSGLYSLSSVVTVPSSSLGTQTYICNVNHKPSNTKVDKKVEPKSCDKTHTCPPCPAPELLGDDSVFLFPPKPKDTLMISRTPEVTCVVVDVSHEDGEVKFNWYVDGVEVHNAKTKPREEQYNSTYRVVSVLTVLHQDWLNGKEYKCKVSNKALPKPIEKTISKAKGQPREPQVYTLPPSRDELTKNQVSLTCLVKGFYPSDIAVEWESNGQPENNYKTTPPVLDSDGSFFLYSKLTVDKSRWQQGNVFSCSVMHEALHNHYTQESLSLSP
light: DIQMTQSPSSLSASVGDRVTITCRASQDISSYLNWYQQKPGKAPKLLIYYTSRLHSGVPSRFSGSGSGTDFTFTISSLQPEDIATYYCQQGNTLPYTFGQGTKVEIK
notes: Alterations introduced into IL6R-B3 (EU numbering)
B9: IL6R-BP087/IL6R-L (antibody, human IgG1, name in EU numbering)
heavy: B8 heavy with L236Y, D239G, G273P
light: B8 light
notes: as for B8
B10: IL6R-BP151/IL6R-L (antibody, human IgG1, name in EU numbering)
heavy: B8 heavy with E235D, L236Y, G273P, K328A, K332R
light: B8 light
notes: as for B8
B11: IL6R-BP089/IL6R-L (antibody, human IgG1, name in EU numbering)
heavy: B8 heavy with L236Y, D239G, G273P, K328A
light: B8 light
notes: as for B8
B12: IL6R-BP179/IL6R-L (antibody, human IgG1, name in EU numbering)
heavy: B8 heavy with K328A
light: B8 light
notes: as for B8
B13: IL6R-B3/IL6R-L (antibody, human IgG1)
heavy: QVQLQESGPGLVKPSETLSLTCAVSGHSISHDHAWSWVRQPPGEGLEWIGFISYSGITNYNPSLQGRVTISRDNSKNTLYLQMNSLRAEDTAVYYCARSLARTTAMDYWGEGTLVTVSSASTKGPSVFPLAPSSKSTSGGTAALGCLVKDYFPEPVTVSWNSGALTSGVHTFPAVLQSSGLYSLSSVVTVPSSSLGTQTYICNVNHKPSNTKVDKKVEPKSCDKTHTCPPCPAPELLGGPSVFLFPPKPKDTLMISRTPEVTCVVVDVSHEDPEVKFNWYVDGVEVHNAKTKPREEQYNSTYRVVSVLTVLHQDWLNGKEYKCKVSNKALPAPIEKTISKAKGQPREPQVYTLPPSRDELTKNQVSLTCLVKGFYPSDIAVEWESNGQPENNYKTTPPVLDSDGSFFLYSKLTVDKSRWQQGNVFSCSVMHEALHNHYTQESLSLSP
light: B8 light
notes: IL6R-G1d with K439E (EU numbering); also called parent polypeptide
B14: IgG1-v1 (antibody containing IL6R-G1d_v1 as H chain and IL6R-L as L chain) (antibody)
heavy: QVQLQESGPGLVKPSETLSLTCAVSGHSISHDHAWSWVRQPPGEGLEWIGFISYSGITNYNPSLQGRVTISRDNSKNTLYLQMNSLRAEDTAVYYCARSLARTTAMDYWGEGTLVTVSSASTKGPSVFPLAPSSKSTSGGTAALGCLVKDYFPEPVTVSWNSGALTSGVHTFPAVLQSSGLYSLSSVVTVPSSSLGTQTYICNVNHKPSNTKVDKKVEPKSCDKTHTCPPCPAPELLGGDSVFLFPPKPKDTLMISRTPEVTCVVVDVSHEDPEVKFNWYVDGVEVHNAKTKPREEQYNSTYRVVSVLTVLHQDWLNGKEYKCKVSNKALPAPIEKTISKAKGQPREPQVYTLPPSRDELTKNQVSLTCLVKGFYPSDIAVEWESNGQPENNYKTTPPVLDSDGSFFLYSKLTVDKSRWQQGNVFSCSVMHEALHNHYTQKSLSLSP
light: B8 light
notes: IL6R-G1d with P238D (EU numbering); also called P238D
B15: IgG1-v3 (antibody containing IL6R-G1d_v3 as H chain and IL6R-L as L chain) (antibody)
heavy: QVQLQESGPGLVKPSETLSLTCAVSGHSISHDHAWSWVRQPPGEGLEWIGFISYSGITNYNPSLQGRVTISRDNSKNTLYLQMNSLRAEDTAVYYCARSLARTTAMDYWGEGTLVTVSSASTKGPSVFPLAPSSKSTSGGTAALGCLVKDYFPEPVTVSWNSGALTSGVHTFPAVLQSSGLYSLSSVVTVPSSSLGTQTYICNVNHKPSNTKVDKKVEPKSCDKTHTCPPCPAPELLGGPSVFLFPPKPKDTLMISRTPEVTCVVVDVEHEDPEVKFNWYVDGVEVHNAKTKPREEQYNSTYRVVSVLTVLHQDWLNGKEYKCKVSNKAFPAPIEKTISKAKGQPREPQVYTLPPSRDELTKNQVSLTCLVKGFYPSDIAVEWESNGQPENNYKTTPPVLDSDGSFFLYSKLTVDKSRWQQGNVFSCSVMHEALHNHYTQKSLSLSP
light: B8 light
notes: IL6R-G1d with S267E/L328F (EU numbering); also called S267E/L328F
B16: IgG1-v2 (antibody containing IL6R-G1d_v2 as H chain and IL6R-L as L chain) (antibody)
heavy: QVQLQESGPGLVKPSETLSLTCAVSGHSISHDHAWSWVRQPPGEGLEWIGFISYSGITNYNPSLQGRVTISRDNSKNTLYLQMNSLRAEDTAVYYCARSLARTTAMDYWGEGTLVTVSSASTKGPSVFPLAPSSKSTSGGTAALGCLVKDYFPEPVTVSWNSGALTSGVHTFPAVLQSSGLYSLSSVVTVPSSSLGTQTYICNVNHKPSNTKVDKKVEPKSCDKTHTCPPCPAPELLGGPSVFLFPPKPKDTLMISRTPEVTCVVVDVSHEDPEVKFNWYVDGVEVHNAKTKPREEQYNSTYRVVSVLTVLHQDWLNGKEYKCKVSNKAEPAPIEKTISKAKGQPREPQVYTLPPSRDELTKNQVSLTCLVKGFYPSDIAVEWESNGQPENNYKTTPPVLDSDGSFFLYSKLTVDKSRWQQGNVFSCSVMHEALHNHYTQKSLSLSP
light: B8 light
notes: IL6R-G1d with L328E (EU numbering); also called L328E

Numbering of substitutions follows the chain as printed. In names and notes the source's numbering stands.

T9 sequence (P08637 other isoform, or with tags, fused parts or gaps limits assumed): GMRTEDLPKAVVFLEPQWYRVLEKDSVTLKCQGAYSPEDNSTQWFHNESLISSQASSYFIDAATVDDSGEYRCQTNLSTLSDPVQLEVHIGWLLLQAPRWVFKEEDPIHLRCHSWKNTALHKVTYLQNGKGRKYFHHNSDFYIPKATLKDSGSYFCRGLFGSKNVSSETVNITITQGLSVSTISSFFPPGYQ

The target in one assay is T1, human FcγRIIb. Kind of assay: SPR (Biacore), antibody captured by Protein L, FcγR as analyte, pH 7.4, 25 C.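 Further: Buffer-blank-subtracted FcγR response, normalized to the captured antibody level and scaled to 1500 RU of captured antibody, CM4 chip, ACES-NaCl running buffer with polysorbate 20.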
Experimental: (§1) Binding activity between the antibodies and human FcγRIa, FcγRIIa(H), FcγRIIa(R), FcγRIIb and FcγRIIIa(F) (hereinafter referred to as human FcγRs) was evaluated using the BIACORE™ T100 or T200 surface plasmon resonance system (GE Healthcare). The antibodies being tested were captured by Protein L (ACTIGEN® protein (Alltech)) that was immobilized in suitable amounts on the CM4 Sensor Chip (GE Healthcare) by amine coupling. Next, the diluted human FcγRs and a running buffer used as a blank were injected to allow interaction with the antibodies captured on the sensor chip. A buffer consisting of 20 mmol/L N-(2-acetamido)-2-aminoethanesulfonic acid (ACES), 150 mmol/L NaCl and 0.05% (w/v) polysorbate 20 (Tween 20®) (pH 7.4) was used for the running buffer, and this buffer was also used to dilute the human FcγRs. 10 mmol/L glycine-HCl (pH 1.5) was used to regenerate the sensor chip. All measurements were carried out at 25° C.
(§2) Binding activity to human FcγRs can be represented by the relative binding activity to human FcγRs. Antibody was captured by Protein L, and the amount of change in a sensorgram before and after the antibody was captured was defined as X1. Next, human FcγRs were allowed to interact with the antibody, and the value obtained by subtracting binding activity of human FcγRs represented as the amount of change in a sensorgram before and after allowing the running buffer to interact with antibody captured by Protein L (ΔA2) from the value obtained by multiplying by 1500 the value obtained by dividing the binding activity of human FcγRs represented as the amount of change in a sensorgram before and after that interaction (ΔA1) by the captured amount (X) of each antibody, was divided by the captured amount of each antibody (X) followed by multiplying by 1500 to obtain the binding activity of the human FcγRs (Y) (Equation 2).
Turning to B1, the “BINDING AMOUNT (RU)” value came to 31.9 RU.
Same read-out and setting: next, B2: 0.4 RU; B3: 55.5 RU; B4: 71.8 RU.
As to B5, the “BINDING AMOUNT (RU)” value came out at 0.4 RU.

A further assay deals with T2, human FcγRIIa(H) (allotype H131). Described as above.
Experimental: as §1, §2
With B1, the “BINDING AMOUNT (RU)” value worked out at 204 RU.
Turning to B2, the “BINDING AMOUNT (RU)” value was 1 RU.
With B3, the “BINDING AMOUNT (RU)” value was 266 RU.
Regarding B4, the “BINDING AMOUNT (RU)” value stood at 37.5 RU.
The same measure, in the same setting: in the case of B5 it was -0.7 RU.

The target of a further assay is T3, human FcγRIIa(R) (allotype R131). The assay is described as above.
Experimental: as §1, §2
For B1, the “BINDING AMOUNT (RU)” value was 120 RU.
Regarding B2, the “BINDING AMOUNT (RU)” value is 1 RU.
Same read-out and setting: in the case of B3 it was 188 RU.
On the same count and under the same terms, next, B4: 92.8 RU; B5: -0.2 RU.

The target in a further assay is T6, human FcγRIIIa(F) (allotype F158) (human, UniProt P08637 17-208, limits assumed).
T6 construct: also called hFcgRIIIa(F); FcgRIIIaF
The description is as above.
Experimental: as §1, §2
In the case of B1, the “BINDING AMOUNT (RU)” value is 9.3 RU.
With B2, the “BINDING AMOUNT (RU)” value was 0.6 RU.
For the molecule B3, the “BINDING AMOUNT (RU)” value was found to be 16.3 RU.
In the case of B4, the “BINDING AMOUNT (RU)” value was 3.4 RU.
Same read-out and setting: next, B5: -1.7 RU.

Another assay deals with T7, human FcγRIa (human, UniProt P12314 16-292, limits assumed).
T7 construct: Soluble analyte in SPR; also called hFcgRIa; FcgRIa
T7 sequence (P12314 16-292 limits assumed): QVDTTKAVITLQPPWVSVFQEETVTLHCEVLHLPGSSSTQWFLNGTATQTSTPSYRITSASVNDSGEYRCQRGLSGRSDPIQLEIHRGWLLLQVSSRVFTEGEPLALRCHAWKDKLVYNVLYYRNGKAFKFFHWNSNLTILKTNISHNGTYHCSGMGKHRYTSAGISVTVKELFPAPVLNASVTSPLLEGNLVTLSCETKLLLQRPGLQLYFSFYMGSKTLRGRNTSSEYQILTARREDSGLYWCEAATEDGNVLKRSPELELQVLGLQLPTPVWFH
The assay is described as above.
Experimental: as §1, §2
B1: the “BINDING AMOUNT (RU)” value worked out at 19.7 RU.
B2: the “BINDING AMOUNT (RU)” value is 1.3 RU.
Regarding B3, the “BINDING AMOUNT (RU)” value came to 38.6 RU.
As to B4, the “BINDING AMOUNT (RU)” value turned out to be 367 RU.
B5: the “BINDING AMOUNT (RU)” value turned out to be 1.2 RU.

For the next assay, the target named is T8, human FcγRIIIa(V) (allotype V158) (human, UniProt P08637 17-208, limits assumed).
T8 construct: also called hFcgRIIIa(V)
T8 sequence (P08637 other isoform, or with tags, fused parts or gaps limits assumed): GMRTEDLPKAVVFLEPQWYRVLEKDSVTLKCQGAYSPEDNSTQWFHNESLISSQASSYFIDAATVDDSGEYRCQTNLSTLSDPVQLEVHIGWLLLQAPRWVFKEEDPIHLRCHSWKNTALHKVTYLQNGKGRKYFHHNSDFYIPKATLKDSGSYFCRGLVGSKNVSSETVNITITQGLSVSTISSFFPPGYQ
The description is as above.
Experimental: as §1, §2
Regarding B1, the “BINDING AMOUNT (RU)” value amounted to 28.1 RU.
For B2, the “BINDING AMOUNT (RU)” value is 1.1 RU.
The same measure, in the same setting: next, B3: 50.1 RU.
On to B4, for which the “BINDING AMOUNT (RU)” value is 15.5 RU.
As for B5, the “BINDING AMOUNT (RU)” value is -0.5 RU.

Another assay addresses T9, human FcγRIIIa(F) (human, UniProt P08637 17-208, limits assumed).
T9 construct: the assay used allotype F; also called FcgRIIIaF; FcγRIIIa allotype F158
The experiment in a line: SPR, antibody captured, FcγR as analyte, capture-corrected binding amount.
Experimental: Interaction between each modified antibody and Fcγ receptor prepared in the manner described above was analyzed using the BIACORE™ T100 surface plasmon resonance system (GE Healthcare), BIACORE™ T200 surface plasmon resonance system (GE Healthcare), BIACORE™ A100 surface plasmon resonance system or BIACORE™ 4000 surface plasmon resonance system. HBS-EP+(GE Healthcare) was used for the running buffer, and measurements were carried out at 25° C. The chips used were chips in which antigen peptides, Protein A (Thermo Scientific), Protein A/G (Thermo Scientific) or Protein L (ACTIGEN® protein (Alltech or BioVision) were immobilized on the Series S Sensor Chip CM5 (GE Healthcare) or Series S Sensor Chip CM4 (GE Healthcare) by amine coupling, or chips in which preliminarily biotinylated antigen peptides were allowed to interact and then immobilized on the Series S Sensor Chip SA (certified) (GE Healthcare). The target antibodies were captured on these sensor chips, Fcγ receptor diluted with the running buffer was allowed to interact, followed by measurement of the amount of bound antibody. The amounts bound were compared between antibodies. However, since the amount of Fcγ receptor bound depends on the amount of captured antibody, the values used for comparison were first corrected by dividing the amount of Fcγ receptor bound by the captured amount of each antibody. Through reaction with 10 mM glycine-HCl at pH 1.5, the sensor chips were regenerated by washing off antibody captured on the sensor chips and used repeatedly.
Binding strength was evaluated according to the following method based on the results of analyzing the interaction with each FcγR. […] That value was then further multiplied by 100, and the resulting value was used as an indicator of relative binding activity to each FcγR.
In the case of B6, the relative binding activity was 1 % of GpH7-B3/GpL16-k0.
On the same count and under the same terms, next, B7: 12 % of GpH7-B3/GpL16-k0.

For another assay, the target named is T4, human FcγRIIb. The experiment in a line: ratio of SPR KD values: KD for FcγRIIaR divided by KD for FcγRIIb.
Experimental: (§3) Next, interaction between these antibodies and FcγR was analyzed kinetically using the BIACORE™ T100 (GE Healthcare). The interaction was measured at a temperature of 25° C. using HBS-EP+ (GE Healthcare) for the running buffer. The Series S Sensor Chip CM5 (GE Healthcare) was used after immobilizing Protein A by amine coupling. […] Antibody captured on the chip was washed by allowing 10 mM glycine-HCl (pH 1.5) to react following measurement. The chip regenerated in this manner was used repeatedly. The dissociation constant KD (mol/L) was calculated from the association rate constant ka (L/mol/s) and dissociation rate constant kd (1/s) as calculated by global-fitting the measurement results with a 1:1 Langmuir binding model using the BIACORE™ Evaluation Software.
(§4) Furthermore, KD(IIaR)/KD(IIb) and KD(IIaH)/KD(IIb) in the table respectively represent the value obtained by dividing the KD value of each variant for FcγRIIaR by the KD value of each variant for FcγRIIb, and the value obtained by dividing the KD value of each variant for FcγRIIaH by the KD value of each variant for FcγRIIb.
As to B8, the “KD(IIaR)/KD(IIb)” value was determined as 18.5.
Still for that read-out and setting: in the case of B9 it was 15.
Consider B10, for which the “KD(IIaR)/KD(IIb)” value came to 15.9.
B11: the “KD(IIaR)/KD(IIb)” value worked out at 15.5.
Consider B12, for which the “KD(IIaR)/KD(IIb)” value turned out to be 15.7.

The target of another assay is T5, human FcγRIIa type R. Kind of assay: SPR (Biacore), antibody captured on Protein A chip, FcγR as analyte, 25 C, method of Example 14.
Experimental: as §3, §4
B13 displayed a Kd of 11 µM.

A further assay concerns the target T1, human FcγRIIb. Kind of assay: SPR (Biacore T100), ratio of the KD values of Table 24.
Experimental: as §3
Regarding B14, the “relative KD (KD of IgG1 / KD of the variant)” value was 4.8 fold.
Take B15: the “relative KD (KD of IgG1 / KD of the variant)” value stood at 408 fold.
On the same count and under the same terms, next, B16: 2.3 fold.

The target of another assay is T2, human FcγRIIa(H) (allotype H131). The assay is described as above.
Experimental: as §3
Take B14: the “relative KD (KD of IgG1 / KD of the variant)” value is 0.014 fold.
For the molecule B15, the “relative KD (KD of IgG1 / KD of the variant)” value worked out at 0.51 fold.
In the case of B16, the “relative KD (KD of IgG1 / KD of the variant)” value was found to be 0.064 fold.

A further assay addresses T3, human FcγRIIa(R) (allotype R131). Described as above.
Experimental: as §3
As for B14, the “relative KD (KD of IgG1 / KD of the variant)” value worked out at 0.1 fold.
The same measure, in the same setting: next, B15: 522 fold; B16: 0.41 fold.

A further assay has as its target T7, human FcγRIa. Described as above.
Experimental: as §3
Consider B14, for which the “relative KD (KD of IgG1 / KD of the variant)” value worked out at 0.047 fold.
As to B15, the “relative KD (KD of IgG1 / KD of the variant)” value worked out at 1.8 fold.
As to B16, the “relative KD (KD of IgG1 / KD of the variant)” value was 0.74 fold.
